Patent publication US20030064069A1 (CAMBRIDGE ANTIBODY TECHNOLOGY, published 2003)

Tests used:
[1] = molecular target: T1, Recombinant human TGFβ1 (active TGFβ1) (human, UniProt P01137 279-390); test: radioreceptor assay (RRA): scFv inhibits [125I]TGFβ1 binding to A549 cells; approx IC50
T1 construct: mature; Recombinant human TGFβ1 from R&D Systems; also called TGFb1
Description: (§1) The scFv fragments were subsequently tested for their ability to neutralise binding of ¹²⁵I-TGFβ₁ to A549 cells in a radioreceptor binding assay (RRA), using the protocol described in Example 3 (see below). For the RRA, individual clones were expressed as soluble scFv and subsequently purified from periplasmic preparations by immobilised metal affinity chromatography (IMAC) followed by fractionation of monomeric scFv by gel filtration FPLC on a Superdex 75 column (Pharmacia).
(§2) A549 cells were seeded into 24-well plates at 2×10⁵ cells per well for 24 hours in order to achieve >90% confluency. Immediately before the assay, monolayers were washed twice with buffer (1:1 DMEM:Hams-F12) and 0.5 ml assay buffer (1:1 DMEM:Hams F12+0 1% BSA) was added. Two or three-fold serial dilutions of antibodies were prepared in assay buffer and added to an equal volume of 40 pM [¹²⁵I]TGFβ₁ in assay buffer.

[2] = molecular target: T1, Recombinant human TGFβ1 (active TGFβ1); test: radioreceptor assay, his-preps of scFv (FIG. 2); reference JT182 scFv
Description: as §2
Purified preparations of SL15S scFv, SL15A IgG4, SL15S IgG4 and Mab ID.11.16 (Genzyme mAb) were also analysed (FIG. 3).

[3] = molecular target: T2, Recombinant human latent TGFβ1 (human, UniProt P01137 30-278; P01137 279-390); test: radioreceptor assay and TF1 proliferation assay in the presence of latent TGFβ1
T2 construct: domain: latency associated peptide;mature; From R&D Systems
T2 sequence (P01137 30-278 limits assumed, chain 1 of 2): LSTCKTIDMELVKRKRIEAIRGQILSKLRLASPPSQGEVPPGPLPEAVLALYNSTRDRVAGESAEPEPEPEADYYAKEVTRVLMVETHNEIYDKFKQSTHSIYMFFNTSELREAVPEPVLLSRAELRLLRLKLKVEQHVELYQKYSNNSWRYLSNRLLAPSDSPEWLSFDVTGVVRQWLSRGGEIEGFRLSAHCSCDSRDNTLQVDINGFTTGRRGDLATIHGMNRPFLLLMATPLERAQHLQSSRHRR
T2 sequence (P01137 279-390 limits assumed, chain 2 of 2): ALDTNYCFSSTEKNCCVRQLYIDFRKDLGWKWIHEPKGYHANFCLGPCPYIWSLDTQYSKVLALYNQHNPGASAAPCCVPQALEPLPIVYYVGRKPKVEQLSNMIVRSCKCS

[4] = molecular target: T1, Recombinant human TGFβ1 (active TGFβ1); test: radioreceptor assay: inhibition of [125I]TGFβ1 binding to A549 cells; reference CS37 scFv
Description: as §1, §2

T1 sequence (P01137 279-390 limits assumed): as the sequence (P01137 279-390 limits assumed, chain 2 of 2) above

B1: CS37 scFv (31G9 VH/CS37 VL) (scFv, V domains shown)
VH: QVQLVQSGGGVVQPGRSLRLSCAASGFTFSSYGMHWVRQAPGKGLEWVAVISYDGSIKYYADSVKGRFTISRDNSKNTLYLQMNSLRAEDTAVYYCARTGEYSGYDTSGVELWGQGTTVTVSS
VL: EIVLTQSPSSLSASVGDRVTITCRASQGIGDDLGWYQQKPGKAPILLIYGTSTLQSGVPSRFSGSGSGTDFTLTINSLQPEDFATYYCLQDSNYPLTFGGGTRLEIK
notes: not shown: scFv linker, domain order and tag (on phage: the pCANTAB6 gene III fusion); WO97/13844 is cited for CS37
IC50 [1]: 10 to 15 nM

B2: JT182 scFv (JT182 VH/CS37 VL) (scFv, V domains shown)
VH: QVQLVESGGGVVQPGRSLRLSCAASGFTFSSYGMHWVRQAPGKELEWVAVISYDGSIKYYADSVKGRFTISRDNSKNTLYLQMNSLRAEDTAVYYCARTGEYSGYDTPASPDWGQGTTVTVSS
VL: EIVLTQSPSSLSASVGDRVTITCRASQGIGDDLGWYQQKPGKAPILLIYGTSTLQSGVPSRFSGSGSGTDFTLTINSLQPEDFATYYCLQDSNYPLTFGGGTRLEIK
notes: used as his-prep; not shown: scFv linker, domain order and His tag
IC50 [1]: 0.5 to 1 nM

B3: SL15S scFv (SL15 VH/SL15S VL) (scFv, V domains shown)
VH: EVQLVESGGGVVQPGRSLRLSCAASGFTFSSYGMHWVRQAPGKELEWVAVISYDGSIKYYADSVKGRFTISRDNSKNTLYLQMNSLRAEDTAVYYCARTGEYSGYDTDPQYSWGQGTTVTVSS
VL: EIVLTQSPSSLSASVGDRVTITCRSSQGIGDDLGWYQQKPGKAPILLIYGTSTLQSGVPSRFSGSGSGTDFTLTINSLQPEDFATYYCLQDSNYPLTFGGGTRLEIK
notes: soluble scFv was purified by IMAC ('his-preps') and FPLC; also called CAT-191; CAT 191; not shown: scFv linker, domain order and His/other tag (on phage: the pCANTAB6 gene III fusion)
fold more active than JT182 scFv [2]: 10 fold | binding result [3]: no binding | IC50 [1]: ~0.1 nM | fold better than CS37 (IC50 in the RRA) [4]: ≥ 100 fold
